The text below walks through data of publication PMC3930741.

A word on the stoichiometry N: it is the number of molecules, sites or subunits per partner or assembly.

For the experiment, the target named is recombinant Tg-p43 (E. coli-derived) (Toxoplasma gondii). Kind of experiment: cross-linking; purified E. coli-derived Tg-p43 at 1 mg/ml in PBS with 10% glycerol, 0.25% glutaraldehyde on ice, stopped with Tris-HCl pH 8; Coomassie-stained SDS-PAGE; beta-amylase and carbonic anhydrase for comparison.

Regarding “recombinant Tg-p43 (E. coli-derived) (natural protein)”, the stoichiometry N worked out at 2.
